Assay results taken from paper PMC10705891.

Biological target: HopU1 (Pseudomonas syringae, UniProt Q88A91 1-264)
Assay: MST
Conditions: protein: recombinant; tags: C-terminal His6 (pET22b NdeI/XhoI, Ni-NTA; tag position implied by vector)

B1: H1 RNA aptamer (structured_RNA)
RNA: GCCACCAACGACAUUUUGUCAAUCUGUAGAAAAAAUCAGGGUUGAUAUAAAUAGUGCCCAU
Question: With B1 as the binder, how does the Kd read?
Answer: 6.71 ± 0.69 nM

B2: H2 RNA aptamer (structured_RNA)
RNA: GCCACCAACGACAUUACGCAUUGCUUCUAAAGGGUGUGCCGUUGAUAUAAAUAGUGCCCAU
Question: Which Kd does the source give for B2 here?
Answer: 6.41 ± 0.48 nM
